How the values were obtained:
HeLa Kyoto [1] = assay: solubility in G1/S (NP-40 vs SDS abundance) (log2 ratio); higher = more soluble; conditions: cell cycle stage: G1/S
HeLa Kyoto [2] = assay: melting temperature (median over replicates), in situ; higher = more thermally stable
HeLa Kyoto [3] = assay: solubility change mitosis vs G1/S (difference of NP-40 vs SDS log2 ratios) (log2 ratio difference); higher = more soluble in mitosis
HeLa Kyoto [4] = assay: thermal stability score vs G1/S (z-score of summed log2 fold changes over temperatures); higher = more thermally stable than in G1/S
[5] = cell cycle stage: early G1 (4.5 h after nocodazole release)
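For melting temperature (median over replicates), in situ in this document: HeLa Kyoto cells synchronized by double thymidine or nocodazole block, proteins quantified by TMT10plex mass spectrometry, three independent biological replicates.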
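For solubility change mitosis vs G1/S (difference of NP-40 vs SDS log2 ratios) in this document: synchronized HeLa Kyoto cells (double thymidine block for G1/S, nocodazole release for mitosis), protein amounts in NP-40 versus SDS lysates quantified by mass spectrometry, three biological replicates.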
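For solubility in G1/S (NP-40 vs SDS abundance) in this document: HeLa Kyoto cells arrested at G1/S by double thymidine block, proteins quantified by TMT10plex mass spectrometry in mild NP-40 versus SDS extracts, three biological replicates.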
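For thermal stability score vs G1/S (z-score of summed log2 fold changes over temperatures) in this document: synchronized HeLa Kyoto cells, proteins quantified by TMT10plex mass spectrometry, three biological replicates, mitosis taken 0.5 h after nocodazole release, G1/S directly after double thymidine block.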

| Sequence | solubility in G1/S (log2) (HeLa Kyoto [1]) | melting temperature (HeLa Kyoto [2]; cell cycle stage: G1/S) [°C] | melting temperature (HeLa Kyoto [2]; cell cycle stage: mitosis) [°C] | solubility change mitosis (log2) (HeLa Kyoto [3]) | thermal stability score (HeLa Kyoto [4]; [5]) | thermal stability score (HeLa Kyoto [4]; cell cycle stage: mitosis) |
| --- | --- | --- | --- | --- | --- | --- |
| MIPNGYLMFEDENFIESSVAKLNALRKSGQFCDVRLQVCGHEMLAHRAVLACCSPYLFEIFNSDSDPHGISHVKFDDLNPEAVEVLLNYAYTAQLKADKELVKDVYSAAKKLKMDRVKQVCGDYLLSRMDVTSCISYRNFASCMGDSRLLNKVDAYIQEHLLQISEEEEFLKLPRLKLEVMLEDNVCLPSNGKLYTKVINWVQRSIWENGDSLEELMEEVQTLYYSADHKLLDGNLLDGQAEVFGSDDDHIQFVQKKPPRENGHKQISSSSTGCLSSPNATVQSPKHEWKIVASEKTSNNTYLCLAVLDGIFCVIFLHGRNSPQSSPTSTPKLSKSLSFEMQQDELIEKPMSPMQYARSGLGTAEMNGKLIAAGGYNREECLRTVECYNPHTDHWSFLAPMRTPRARFQMAVLMGQLYVVGGSNGHSDDLSCGEMYDSNIDDWIPVPELRTNRCNAGVCALNGKLYIVGGSDPYGQKGLKNCDVFDPVTKLWTSCAPLNIRRHQSAVCELGGYLYIIGGAESWNCLNTVERYNPENNTWTLIAPMNVARRGAGVAVLNGKLFVCGGFDGSHAISCVEMYDPTRNEWKMMGNMTSPRSNAGIATVGNTIYAVGGFDGNEFLNTVEVYNLESNEWSPYTKIFQF [IVNS1ABP] | -0.0792 | 50.7 | 49.2 | -0.0597 | -2.78 | -1.82 |
| MIRRVLPHGMGRGLLTRRPGTRRGGFSLDWDGKVSEIKKKIKSILPGRSCDLLQDTSHLPPEHSDVVIVGGGVLGLSVAYWLKKLESRRGAIRVLVVERDHTYSQASTGLSVGGICQQFSLPENIQLSLFSASFLRNINEYLAVVDAPPLDLRFNPSGYLLLASEKDAAAMESNVKVQRQEGAKVSLMSPDQLRNKFPWINTEGVALASYGMEDEGWFDPWCLLQGLRRKVQSLGVLFCQGEVTRFVSSSQRMLTTDDKAVVLKRIHEVHVKMDRSLEYQPVECAIVINAAGAWSAQIAALAGVGEGPPGTLQGTKLPVEPRKRYVYVWHCPQGPGLETPLVADTSGAYFRREGLGSNYLGGRSPTEQEEPDPANLEVDHDFFQDKVWPHLALRVPAFETLKVQSAWAGYYDYNTFDQNGVVGPHPLVVNMYFATGFSGHGLQQAPGIGRAVAEMVLKGRFQTIDLSPFLFTRFYLGEKIQENNII [FOXRED1] | -0.0625 | 51.5 | 51.6 | 0.0476 | 1.19 | 0.0541 |
| MIWYILIIGILLPQSLAHPGFFTSIGQMTDLIHTEKDLVTSLKDYIKAEEDKLEQIKKWAEKLDRLTSTATKDPEGFVGHPVNAFKLMKRLNTEWSELENLVLKDMSDGFISNLTIQRQYFPNDEDQVGAAKALLRLQDTYNLDTDTISKGNLPGVKHKSFLTAEDCFELGKVAYTEADYYHTELWMEQALRQLDEGEISTIDKVSVLDYLSYAVYQQGDLDKALLLTKKLLELDPEHQRANGNLKYFEYIMAKEKDVNKSASDDQSDQKTTPKKKGVAVDYLPERQKYEMLCRGEGIKMTPRRQKKLFCRYHDGNRNPKFILAPAKQEDEWDKPRIIRFHDIISDAEIEIVKDLAKPRLRRATISNPITGDLETVHYRISKSAWLSGYENPVVSRINMRIQDLTGLDVSTAEELQVANYGVGGQYEPHFDFARKDEPDAFKELGTGNRIATWLFYMSDVSAGGATVFPEVGASVWPKKGTAVFWYNLFASGEGDYSTRHAACPVLVGNKWVSNKWLHERGQEFRRPCTLSELE [P4HA1] | 0.216 | 55.3 | 54.1 | -0.0564 | 3.59 | 6.2 |
| MKAFHTFCVVLLVFGSVSEAKFDDFEDEEDIVEYDDNDFAEFEDVMEDSVTESPQRVIITEDDEDETTVELEGQDENQEGDFEDADTQEGDTESEPYDDEEFEGYEDKPDTSSSKNKDPITIVDVPAHLQNSWESYYLEILMVTGLLAYIMNYIIGKNKNSRLAQAWFNTHRELLESNFTLVGDDGTNKEATSTGKLNQENEHIYNLWCSGRVCCEGMLIQLRFLKRQDLLNVLARMMRPVSDQVQIKVTMNDEDMDTYVFAVGTRKALVRLQKEMQDLSEFCSDKPKSGAKYGLPDSLAILSEMGEVTDGMMDTKMVHFLTHYADKIESVHFSDQFSGPKIMQEEGQPLKLPDTKRTLLFTFNVPGSGNTYPKDMEALLPLMNMVIYSIDKAKKFRLNREGKQKADKNRARVEENFLKLTHVQRQEAAQSRREEKKRAEKERIMNEEDPEKQRRLEEAALRREQKKLEKKQMKMKQIKVKAM [CCDC47] | -0.0628 | 52.9 | 52.7 | 0.000886 | 0.286 | -1.13 |
| MKCFFPVLSCLAVLGVVSAQRQVTVQEGPLYRTEGSHITIWCNVSGYQGPSEQNFQWSIYLPSSPEREVQIVSTMDSSFPYAIYTQRVRGGKIFIERVQGNSTLLHITDLQARDAGEYECHTPSTDKQYFGSYSAKMNLVVIPDSLQTTAMPQTLHRVEQDPLELTCEVASETIQHSHLSVAWLRQKVGEKPVEVISLSRDFMLHSSSEYAQRQSLGEVRLDKLGRTTFRLTIFHLQPSDQGEFYCEAAEWIQDPDGSWYAMTRKRSEGAVVNVQPTDKEFTVRLETEKRLHTVGEPVEFRCILEAQNVPDRYFAVSWAFNSSLIATMGPNAVPVLNSEFAHREARGQLKVAKESDSVFVLKIYHLRQEDSGKYNCRVTEREKTVTGEFIDKESKRPKNIPIIVLPLKSSISVEVASNASVILEGEDLRFSCSVRTAGRPQGRFSVIWQLVDRQNRRSNIMWLDRDGTVQPGSSYWERSSFGGVQMEQVQPNSFSLGIFNSRKEDEGQYECHVTEWVRAVDGEWQIVGERRASTPISITALEMGFAVTAISRTPGVTYSDSFDLQCIIKPHYPAWVPVSVTWRFQPVGTVEFHDLVTFTRDGGVQWGDRSSSFRTRTAIEKAESSNNVRLSISRASDTEAGKYQCVAELWRKNYNNTWTRLAERTSNLLEIRVLQPVTKLQVSKSKRTLTLVENKPIQLNCSVKSQTSQNSHFAVLWYVHKPSDADGKLILKTTHNSAFEYGTYAEEEGLRARLQFERHVSGGLFSLTVQRAEVSDSGSYYCHVEEWLLSPNYAWYKLAEEVSGRTEVTVKQPDSRLRLSQAQGNLSVLETRQVQLECVVLNRTSITSQLMVEWFVWKPNHPERETVARLSRDATFHYGEQAAKNNLKGRLHLESPSPGVYRLFIQNVAVQDSGTYSCHVEEWLPSPSGMWYKRAEDTAGQTALTVMRPDASLQVDTVVPNATVSEKAAFQLDCSIVSRSSQDSRFAVAWYSLRTKAGGKRSSPGLEEQEEEREEEEEEDDDDDDDPTERTALLSVGPDAVFGPEGSPWEGRLRFQRLSPVLYRLTVLQASPQDTGNYSCHVEEWLPSPQKEWYRLTEEESAPIGIRVLDTSPTLQSIICSNDALFYFVFFYPFPIFGILIITILLVRFKSRNSSKNSDGKNGVPLLWIKEPHLNYSPTCLEPPVLSIHPGAID [IGSF3] | -0.0153 | 54.3 | 53.8 | -0.047 | -2.57 | -2.96 |
